Values belong to the molecule of their own block, whether it stands above or below them.
How the values were obtained:
[1] = biological target: RdfS, recombination directionality factor of ICEMlSym^R7A (6H tag removed) (Mesorhizobium japonicum R7A); assay: SEC; analytical gel filtration, Superdex 75 10/300 GL, 50 mM Tris–HCl, 300 mM NaCl, 5% (v/v) glycerol, pH 7.4, 4°C, 0.5 ml/min; protein at ∼7 mg/ml, 50 μl injected; no DNA
[2] = biological target: T1, RdfS (Mesorhizobium japonicum R7A (ICEMlSymR7A)) (UniProt Q7AL96); assay: EMSA; settings: EMSA: DNA master mix 50 mM Tris-HCl, 150 mM NaCl, 5% glycerol, pH 7.4, 1 unit poly[d(I-C)] (10 of 20 uL), 10 nM DNA; SPR: ReDCaT on Biacore T200, 1 uM protein …
T1 sequence: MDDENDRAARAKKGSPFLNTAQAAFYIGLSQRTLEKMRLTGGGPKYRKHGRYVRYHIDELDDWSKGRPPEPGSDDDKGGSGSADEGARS

[3] = tested on: RdfS13-89 (Mesorhizobium japonicum R7A (ICEMlSymR7A)); assay: EMSA; settings: EMSA: DNA master mix 50 mM Tris-HCl, 150 mM NaCl, 5% glycerol, pH 7.4, 1 unit poly[d(I-C)] (10 of 20 uL), 10 nM DNA; SPR: ReDCaT on Biacore T200, 1 uM protein …
[4] = biological target: RdfS_(13–89), α1-truncated RdfS (Mesorhizobium japonicum R7A); assay: SEC; analytical gel filtration, Superdex 75 10/300 GL, 50 mM Tris–HCl, 300 mM NaCl, 5% (v/v) glycerol, pH 7.4, 4°C, 0.5 ml/min; protein at ∼7 mg/ml, 50 μl injected; no DNA
[5] = biological target: 6H-RdfS, N-terminal hexahistidine fusion of RdfS (Mesorhizobium japonicum R7A); assay: SEC-SAXS; SEC-SY-SAXS (Australian Synchrotron) of 6H-RdfS bound to the 40-bp dsDNA attP_8; mass of the nucleoprotein complex from scattering
6H-RdfS = biological target: T2, 6H-RdfS (Mesorhizobium japonicum R7A …, UniProt Q7AL96 1-89); assay: SEC-SAXS; 4:1 protein:dsDNA; EMSA: DNA master mix 50 mM Tris-HCl, 150 mM NaCl, 5% glycerol, pH 7.4, 1 unit poly[d(I-C)] (10 of 20 uL), 10 nM DNA; SPR: ReDCaT on Biacore T200, 1 uM protein; settings: protein: recombinant; tags: N-terminal 6xHis; chain copies: 4; blunt
T2 sequence: T1 sequence

stoichiometry N [1]: 4
Molecule: RdfS, recombination directionality factor of ICEMlSym^R7A (6H tag removed) (natural protein)

Molecule: GCCGGCTCAAGCCCTCGCGCCGCAACTCGGCGCGGGGGTTCCCGCCGACGCTCGCCCGAAGGGGCGGCGAAAACTCCCACCCGACTCTTCGCCCGTCCCCACGACGACCTCGTTCGCCGATCCTCGCGGTTGCTTGTCCGAAGCGAAACGAGGACC (double strand) [PrdfS 162 bp]
binding [2]: binds

Molecule: attP 283 bp
binding signal (% of RdfS affinity) [3]: 50

stoichiometry N [4]: 2
Molecule: RdfS_(13–89), α1-truncated RdfS (domain or fragment)

stoichiometry N [5]: 4
Molecule: 6H-RdfS, N-terminal hexahistidine fusion of RdfS (natural protein)

B1: attP_8 40-mer (dsDNA)
DNA 1: GAATTTCGGCGCAGTTGGTCCAACGAGGCGGGGGGCTGGT
DNA 2: ACCAGCCCCCCGCCTCGTTGGACCAACTGCGCCGAAATTC
binding result (6H-RdfS): binds

From paper PMC11963761, “Structural basis for control of integrative and conjugative element excision and transfer by the oligomeric winged helix–turn–helix protein RdfS”
